# In doi:10.1101/2023.08.08.549832:
# Columns and labels:
# Assay in all cases: FRET or BRET
# [1] = target: PTCH1-eGFP (enhanced green fluorescent protein-tagged human PTCH1) (human) (UniProt Q13635)
# [2] = target: PTCH2-eGFP (not stated (printed entry Q9Y6C5 is human PTCH2)) (UniProt Q9Y6C5)
# [3] = target: PTCH1-eGFP (enhanced green fluorescent protein-tagged human PTCH1) (human) (UniProt Q13635); remark: listed apart in the source
net increase in GFP signal after mCherry photobleaching [1],magnitude of GFP signal change against PTCH1 homodimers [2],magnitude of GFP signal change against PTCH1 homodimers [3],Molecule
> 10%,50 % lower,,PTCH1-mCherry (from UniProt Q13635 1-1447) (receptor)
,,50 % lower,PTCH2-mCherry (receptor) MTRSPPLRELPPSYTPPARTAAPQILAGSLKAPLWLRAYFQGLLFSLGCGIQRHCGKVLFLGLLAFGALALGLRMAIIETNLEQLWVEVGSRVSQELHYTKEKLGEEAAYTSQMLIQTARQEGENILTPEALGLHLQAALTASKVQVSLYGKSWDLNKICYKSGVPLIENGMIERMIEKLFPCVILTPLDCFWEGAKLQGGSAYLPGRPDIQWTNLDPEQLLEELGPFASLEGFRELLDKAQVGQAYVGRPCLHPDDLHCPPSAPNHHSRQAPNVAHELSGGCHGFSHKFMHWQEELLLGGMARDPQGELLRAEALQSTFLLMSPRQLYEHFRGDYQTHDIGWSEEQASTVLQAWQRRFVQLAQEALPENASQQIHAFSSTTLDDILHAFSEVSAARVVGGYLLMLAYACVTMLRWDCAQSQGSVGLAGVLLVALAVASGLGLCALLGITFNAATTQVLPFLALGIGVDDVFLLAHAFTEALPGTPLQERMGECLQRTGTSVVLTSINNMAAFLMAALVPIPALRAFSLQAAIVVGCTFVAVMLVFPAILSLDLRRRHCQRLDVLCCFSSPCSAQVIQILPQELGDGTVPVGIAHLTATVQAFTHCEASSQHVVTILPPQAHLVPPPSDPLGSELFSPGGSTRDLLGQEEETRQKAACKSLPCARWNLAHFARYQFAPLLLQSHAKAIVLVLFGALLGLSLYGATLVQDGLALTDVVPRGTKEHAFLSAQLRYFSLYEVALVTQGGFDYAHSQRALFDLHQRFSSLKAVLPPPATQAPRTWLHYYRNWLQGIQAAFDQDWASGRITRHSYRNGSEDGALAYKLLIQTGDAQEPLDFSQLTTRKLVDREGLIPPELFYMGLTVWVSSDPLGLAASQANFYPPPPEWLHDKYDTTGENLRIPPAQPLEFAQFPFLLRGLQKTADFVEAIEGARAACAEAGQAGVHAYPSGSPFLFWEQYLGLRRCFLLAVCILLVCTFLVCALLLLNPWTAGLIVLVLAMMTVELFGIMGFLGIKLSAIPVVILVASVGIGVEFTVHVALGFLTTQGSRNLRAAHALEHTFAPVTDGAISTLLGLLMLAGSHFDFIVRYFFAALTVLTLLGLLHGLVLLPVLLSILGPPPEVIQMYKESPEILSPPAPQGGGLRWGASSSLPQSFARVTTSMTVAIHPPPLPGAYIHPAPDEPPWSPAATSSGNLSSRGPGPATG
